Assay results from patent US20230399400A1 (I MAB BIOPHARMA, published 2023).

Columns and labels:
[1] = target: T1, biotinylated CD47 IgV protein (Acrobiosystems) (human, UniProt Q08722 19-139, biotinylated (site not stated)); test: ELISA, biotinylated CD47 protein (monomeric CD47-ECD) coated at 1 µg/mL, antibody titration
T1 construct: domain: IgV; Bought from Acrobiosystems; also called biotinylated human CD47-IgV domain; Biotinylated CD47 protein
Method: Biotinylated CD47 protein (Acrobiosystems) was coated at 1 μg/mL in PBS onto microtiter plates for 2 hours at RT. After coating of antigen, the wells were blocked with PBS/0.05% Tween (PBST) with 1% BSA for 1 hour at RT. After washing of the wells with PBST, different concentrations of anti-CD47 antibodies were added to the wells and incubated for 1 hour at RT. For detection of the binding of the antibodies to CD47, the HRP conjugated secondary antibodies against human Fc (Jackson Immuno Research) were added followed by the addition of fluorogenic substrates (Roche). Between all incubation steps, the wells of the plate were washed with PBST three times. Fluorescence was measured in a TECAN Spectrafluor plate reader.

[2] = target: T2, human CD47 (hCD47) expressed on the surface of cells (human, UniProt Q08722 19-323); test: Flow cytometry on Raji cells endogenously expressing human CD47
T2 construct: whole, on cells; also called CD47+ Raji cells; CD47 on tumor cell lines
Method: Raji cells, which endogenously express human CD47 on the surface, were stained with different concentrations of anti-CD47 antibodies at 4° C. for 30 minutes. Then, the cells were washed with PBS three times, followed by incubation with APC-labeled anti-human Fc specific antibody (Invitrogen) at 4° C. for 30 minutes. Binding was measured using a FACSCanto (Becton-Dickinson).

[3] = target: T3, Recombinant human CD47 IgV-Fc fusion protein (Acrobiosystems) (human, UniProt Q08722 19-139); test: Competition ELISA: CD47-Fc coated, SIRPα-His 1 µg/mL as the blocked ligand, antibody titration
T3 construct: domain: IgV; Bought from Acrobiosystems; also called hCD47 IgV-Fc fusion protein; Recombinant CD47-Fc fusion protein
Method: Recombinant CD47-Fc fusion protein (Acrobiosystems) was coated at 1 μg/ml in PBS onto microtiter plates for 16 hours at 4° C. […] Plates were subsequently washed three times and incubated with an HRP-conjugated anti-His secondary antibody for 1 hour at RT. After washing, the TMB solution was added to each well for 30 min and the reaction was stopped with 2M H₂SO₄, and OD was measured at […].

EC50 [1] [nM] | EC50 [2] [nM] | EC50 [3] [nM] | Binder
0.25 |  |  | reference anti-CD47 antibody 2A1 (antibody, V domains shown) VH: EVQLQQSGAELVRSGASVKLSCTASGFNIKDYYLHWVKQRPEQGLEWIGWIDPDNGDTEFAPKFQGKATMTADTSSNTAYLQLSSLTSEDTAVYYCNAAYGSSSYPMDYWGQGTSVTV VL: DIKMTQSPSSLYASLGERVTITCKASQDIHRYLSWFQQKPGKSPKILIYRANRLVDGVPSRFSGSGSGQDYSLTISSLEYEDMGIYYCLQYDEFPYTFGGGTKLEMK
0.09 | 0.12 | 0.18 | anti-CD47 antibody B2B (antibody, human IgG4 S228P, kappa, V domains shown, also called lemzoparlimab; TJ011133) VH: EVQLVESGGGLVKPGGSLRLSCAASGLTFERAWMNWVRQAPGKGLEWVGRIKRKTDGETTDYAAPVKGRFSISRDDSKNTLYLQMNSLKTEDTAVYYCAGSNRAFDIWGQGTMVTVSS VL: DIVMTQSPDSLAVSLGERATINCKSSQSVLYAGNNRNYLAWYQQKPGQPPKLLINQASTRASGVPDRFSGSGSGTEFTLIISSLQAEDVAIYYCQQYYTPPLAFGGGTKLEIKR
